Laboratory results reported in article PMC8237747 (Journal for Immunotherapy of Cancer, 2021).

B1: cyno 4-1BB overexpressed on CHO cells (receptor)
chain: LQDLCSNCPAGTFCDNNRSQICSPCPPNSFSSAGGQRTCDICRQCKGVFKTRKECSSTSNAECDCISGYHCLGAECSMCEQDCKQGQELTKKGCKDCCFGTFNDQKRGICRPWTNCSLDGKSVLVNGTKERDVVCGPSPADLSPGASSATPPAPAREPGHSPQIIFFLALTSTVVLFLLFFLVLRFSVVKRSRKKLLYIFKQPFMRPVQTTQEEDGCSCRFPEEEEGGCEL

What was measured:
HZ-L-Yr-16-Fc [1] = test: ELISA
[2] = target: B1; test: flow cytometry on cells
HZ-L-Yr-16-Fc [3] = test: flow cytometry on cells

Row | Binder | binding result (HZ-L-Yr-16-Fc [1]) | also measured
1 | Human GITR (receptor) QRPTGGPGCGPGRLLLGTGTDARCCRVHTTRCCRDYPGEECCSEWDCMCVQPEFHCGDPCCTTCRHHPCPPGQGVQSQGKFSFGFQCIDCASGTFSGGHEGHCKPWTDCTQFGFLTVFPGNKTHNAVCVPGSPPAEP | no binding | –
2 | Human OX40 (receptor) LHCVGDTYPSNDRCCHECRPGNGMVSRCSRSQNTVCRPCGPGFYNDVVSSKPCKPCTWCNLRSGSERKQLCTATQDTVCRCRAGTQPLDSYKPGVDCAPCPPGHFSPGDNQACKPWTNCTLAGKHTLQPASNSSDAICEDRDPPATQPQETQGPPARPITVQPTEAWPRTSQGPSTRPVEVPGGRA | no binding | –
3 | Urelumab (antibody, V domains shown) VH: QVQLQQWGAGLLKPSETLSLTCAVYGGSFSGYYWSWIRQSPEKGLEWIGEINHGGYVTYNPSLESRVTISVDTSKNQFSLKLSSVTAADTAVYYCARDYGPGNYDWYFDLWGRGTLVTVSS VL: EIVLTQSPATLSLSPGERATLSCRASQSVSSYLAWYQQKPGQAPRLLIYDASNRATGIPARFSGSGSGTDFTLTISSLEPEDFAVYYCQQRSNWPPALTFGGGTKVEIK | – | binding result [2]: no binding
4 | B1 | – | binding result (HZ-L-Yr-16-Fc [3]): binds
